In assay [1] the target is LDL receptor (LDLR) on human glioblastoma multiforme cells (human) (UniProt P01130). Nature of the assay: ^125I-LDL saturation binding to SF-539 cells.
For assay [2] the target is unchanged. The experiment in a line: ^125I-LDL saturation binding to U-251 MG cells (average of 2 experiments).
The target is the same in assay [3]. The experiment in a line: ^125I-LDL saturation binding to A-172 cells.
Assay [4] has the same target. The experiment in a line: ^125I-LDL saturation binding to SF-767 cells.
Assay [5] has the same target. The experiment in a line: ^125I-LDL saturation binding to SF-763 cells.
The target is the same in assay [6]. Nature of the assay: ^125I-LDL saturation binding to U-343 MG cells.

Regarding “native plasma LDL (low density lipoprotein; LDLR ligand apoB100 on its surface), P04114 28-4563”, the Bmax (ng/mg cell protein) in assay [1] came out at 310; in assay [2] it was 225; in assay [3], 1400; in assay [4], 793; in assay [5] it was 900; in assay [6], 510.

The values above are taken from patent publication US20100047163A1.
